Target: GRASP65-homologue protein 1 (Grh1) (S. cerevisiae) (UniProt Q04410)
Assay: circular dichroism + electron paramagnetic resonance

Sequence of UniProt Q04410 (Q04410 whole entry): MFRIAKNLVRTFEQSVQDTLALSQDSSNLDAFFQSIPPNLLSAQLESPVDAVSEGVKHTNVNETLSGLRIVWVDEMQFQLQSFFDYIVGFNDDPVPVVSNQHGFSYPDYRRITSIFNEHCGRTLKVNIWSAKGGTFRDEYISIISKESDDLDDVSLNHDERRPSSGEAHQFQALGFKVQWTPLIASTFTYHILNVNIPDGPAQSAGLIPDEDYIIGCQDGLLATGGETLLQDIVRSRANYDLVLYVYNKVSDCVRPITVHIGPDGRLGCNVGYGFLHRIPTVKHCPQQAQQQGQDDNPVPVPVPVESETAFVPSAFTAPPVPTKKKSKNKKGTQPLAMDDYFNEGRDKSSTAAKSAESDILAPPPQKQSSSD

Kd: > 1000 µM
Substance: Acyl-CoA Binding Protein 1 (ACBP) (from UniProt P31787 1-87) (natural protein)

— doi:10.1101/2023.12.19.572348
